The values that follow come from the nanobody polyreactivity screen of Harvey et al. (2022).

This data set can be described thus: yeast display, Sf9 membrane polyspecificity reagent, FACS + sequencing; frameworks hold sequencing errors. In a few lines:
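Nanobodies from a synthetic yeast display library (Saccharomyces cerevisiae BJ5465), induced 36–48 hours with galactose, were stained 1 hour at 4 °C with 10% biotinylated, detergent-solubilized Sf9 membrane reagent, enriched on streptavidin microbeads, then FACS-sorted. Anti-HA (expression) and streptavidin (reagent binding) fluorescence set low and high (top ~1%) gates. Polyreactivity labels come from the gate of origin. Genes were colony-PCR amplified, MiSeq 2 × 250 sequenced and filtered by CDR length.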
As to “QVQLVESGGGLVQAGGSLRLSCAASGSTFRYNPMGWYRQAPGNERELVAAISSGGYTNYADSVKGRFTISRDNAKNTVYLQMNSLKPEDTAVYYCAARYYPWKVNRFSYWYDYWGQGTLVTVSS”, the “polyreactivity (PSR sort gate)” value is given as “high polyreactivity”.

Regarding “QVQLVESGGGLVQAGGSLRLSCAASGSTFRYNTMGWYRQAPGKERELVAAINISSSSTYYADSVKGRFTISRDNAKNTVYLQMNSLKPEDTAVYYCAKRDFVPIATDENDDYWGQGTQVTVSS”, the “polyreactivity (PSR sort gate)” value was “low polyreactivity”.

As to “QVQLVESGGGLVQAGGSLRLSCAASGSTFRYNTMGWYRQAPGKERELVAGITSGGGRTYADSVKGRFTISRDNAKNTVYLQMNSLKPEDTAVYYCAAGKYYFLSRYDSWGQGTQVTVSS”, the “polyreactivity (PSR sort gate)” value is reported as “low polyreactivity”.

Regarding “QVQLVESGGGLVQAGGSLRLSCAASGSTFRYNTMGWYRQAPGTERELVATISWRGGRTYYADSVKGRFTISRDNAKNTVYLQMNSLKPEDTAVYYCASIATVPRDYGGNYWGQGTQVTVSS”, the “polyreactivity (PSR sort gate)” value was “low polyreactivity”.

For the sequence “QVQLVESGGGLVQAGGSLRLSCAASGSTFRYNVMGWYRQAPGKERDLVAAITRRGSRTYYADSVKGRFTISRDNAKNTVYLQMNSLKPEDTAVYYCNKYSLSVPANDDYWGQGSQVTVSS”, the “polyreactivity (PSR sort gate)” value is listed as “high polyreactivity”.

Consider “QVQLVESGGGLVQAGGSLRLSCAASGSTFRYYALGWYRQAPGKERELVASISIGGGPTYYADSVKGRFTISRDNAKNTVYLQMHIQKPEDTAVYYCAAERTIRAARPVVRTFDYWGHGTQVTVSS”, for which the “polyreactivity (PSR sort gate)” value is “low polyreactivity”.

“QVQLVESGGGLVQAGGSLRLSCAASGSTFRYYAMGGSRQEPGKESELVAVISTSGNTYYADSVKGRFTISRDNAKNSVYLQMNSLKPEDTAVYYCAARGVGGQISQEYDYWGQGTQVTVSS”: the “polyreactivity (PSR sort gate)” value is “low polyreactivity”.

In the case of “QVQLVESGGGLVQAGGSLRLSCAASGSTFRYYAMGWYRKAPGKERELVAAITSSGGSTYYADSVKGRFTISRDNAKNTVYLQMNSLKPEDTAVYYCAVAVKNWVKLNYWGQGTQVTVSS”, the “polyreactivity (PSR sort gate)” value is given as “high polyreactivity”.

Turning to “QVQLVESGGGLVQAGGSLRLSCAASGSTFRYYAMGWYRQAPGKERELVAAISGSGGRTYYADSVKGRFTISRDNAKNTVYLQMNSLKPEDTAVYYCITRGRRTDYDYWGQGNQVTVSS”, the “polyreactivity (PSR sort gate)” value is on record as “high polyreactivity”.

“QVQLVESGGGLVQAGGSLRLSCAASGSTFRYYAMGWYRQAPGKERELVAAISGSGGRTYYADSVKGRFTISRDNAKNTVYLQMNSLKPEDTAVYYCNTRGRRTDYDYWGQGTQVTVSS”: the “polyreactivity (PSR sort gate)” value was “high polyreactivity”.

Regarding “QVQLVESGGGLVQAGGSLRLSCAASGSTFRYYAMGWYRQAPGKERELVAAISSSGGSTYYADSVKGRFTISRDNAKNTVYLQMNSLKPEDTAVYYCAARHYSYRVEYDYWGQGTQVTVSS”, the “polyreactivity (PSR sort gate)” value is “high polyreactivity”.

Take “QVQLVESGGGLVQAGGSLRLSCAASGSTFRYYAMGWYRQAPGKERELVAAITWGGGNTYYADSVKGRFTISRDNAKNTVYLQMNSLKPEDTAVYYCNKVQSHWLDSWGQGTQVTVSS”: the “polyreactivity (PSR sort gate)” value is “low polyreactivity”.

In the case of “QVQLVESGGGLVQAGGSLRLSCAASGSTFRYYAMGWYRQAPGKERELVAGITNGGRTNYADSVQGRFTISRDNAKNTVYLQMHSLKPEDTAVYYCAADLAWRRIGYNYWGQGTQVTVSS”, the “polyreactivity (PSR sort gate)” value was “high polyreactivity”.

In the case of “QVQLVESGGGLVQAGGSLRLSCAASGSTFRYYAMGWYRQAPGKERELVASISSGGSTNYADSVKGRFTISRDNAKNTVYLQMNSLKPEDTAVYYCNADSWTVNRRYYYYRYEYWGQGTQVTVSS”, the “polyreactivity (PSR sort gate)” value was “low polyreactivity”.

Take “QVQLVESGGGLVQAGGSLRLSCAASGSTFRYYAMGWYRQAPGKESELVAAITSSGTSTYYADSVKGRFTISRDNAKNTVYLQMNSLKPEDTAVYYCAAPPVYKWVSSRYDYWGQGTQVTVSS”: the “polyreactivity (PSR sort gate)” value is listed as “low polyreactivity”.

On to “QVQLVESGGGLVQAGGSLRLSCAASGSTFRYYAMGWYRQARGKERELVAAITSSGGRTYYADSVKGRFTISRDNAKNTVYLQMNSLKPEDTAVYYCAAYAYYHTGDDYWGQGTQVTVSS”, for which the “polyreactivity (PSR sort gate)” value is “high polyreactivity”.

In the case of “QVQLVESGGGLVQAGGSLRLSCAASGSTFRYYARGWYRPAPGKERELVAAITRSGGSTYYADSVKGRFTISRDNAKNTVYLQMNSLKPEDTAVYYCAARWAYPHKTYGTEQTEYDYWGQGTQVTVSS”, the “polyreactivity (PSR sort gate)” value is “high polyreactivity”.

As for “QVQLVESGGGLVQAGGSLRLSCAASGSTFRYYTMGWYRQAPGKERELVADITIGGSTYYADSVKGRFTISRDNSKNSVYLQMYSLKPEDTAVYYCAARSTGGRIFATGVAYAYWGQGTQVTVSS”, the “polyreactivity (PSR sort gate)” value is recorded as “low polyreactivity”.

Turning to “QVQLVESGGGLVQAGGSLRLSCAASGSTFRYYVMGWYRQAPWKERELVAGITKSGGNTYYADSVKGRFTISRDNAKNTVYLQMNSLKPEDTAVYYCAARGLWTRGYYYWGQGTQVTVSS”, the “polyreactivity (PSR sort gate)” value was “high polyreactivity”.

For “QVQLVESGGGLVQAGGSLRLSCAASGSTFRYYVMGWYRTAPGKERDLVAVISGSGGYTYYADSVKGRFTISRDNAKNTVYLQMNSLKPEDTAVYYCAAARKFIPGRGRTYDSWGQGTQVTVSS”, the “polyreactivity (PSR sort gate)” value is listed as “high polyreactivity”.

Take “QVQLVESGGGLVQAGGSLRLSCAASGSTFSANAMGWYRPAPGKERELVAAISRSGTRTYYADSVKGRFTISRDNAKNTVYLQMNSLKPEDTAVYYCAAYVYQYGYDYWGQGTQVTVSS”: the “polyreactivity (PSR sort gate)” value is reported as “high polyreactivity”.

“QVQLVESGGGLVQAGGSLRLSCAASGSTFSANTMGWYRQAPGKERELVAGITNTGDTYYADSVKGRFTISRDNAKNTVYFQMNSLKPEDTAVYYCAADSWRRTDGAYWSTVYYWGQGTQVTVSS”: the “polyreactivity (PSR sort gate)” value was “low polyreactivity”.

As for “QVQLVESGGGLVQAGGSLRLSCAASGSTFSAYGMGWYRQAPGKERELVARISWNGGSTYYADSVKGRFTISRDNAKNTVYLQMNSLKPEDTAVYYCNTELVGHPDWLSWRYYYWGQGTQVTVSS”, the “polyreactivity (PSR sort gate)” value is reported as “low polyreactivity”.

Take “QVQLVESGGGLVQAGGSLRLSCAASGSTFSDYAMGWYRQATGKERELVAAISKRGGSTYYADSVKGRFTISRDNAKNTVFLQMNSQKPEDTAVYYCNKESLYREFDYWGQGTQVTVSS”: the “polyreactivity (PSR sort gate)” value was “low polyreactivity”.

In the case of “QVQLVESGGGLVQAGGSLRLSCAASGSTFSDYTMGWYRQAPGKERELVAAITTIGGSTYYADSVKGRFTISRDNAKNTVYLQMNSLKPEDTAVYYCAAYYYYPFEYYYWGQGTQVTVSS”, the “polyreactivity (PSR sort gate)” value is given as “low polyreactivity”.

Turning to “QVQLVESGGGLVQAGGSLRLSCAASGSTFSDYVMGWYRQAPGKEREFVAAISWTGGITYYADSVKGRFTISRDNAKNTVYLQMNSLKPEDTAVYYCAAKRKYYGNGYWGQGTQVTVSS”, the “polyreactivity (PSR sort gate)” value was “high polyreactivity”.

With “QVQLVESGGGLVQAGGSLRLSCAASGSTFSEYAMGWYRQAPGKERELVASITWSDDSTYYADSVKGRFTISRDNAKITVYLQMNSLKPEDSAVYYCAVRTGRRWWKFDYWGQGTQVTVSS”, the “polyreactivity (PSR sort gate)” value is “low polyreactivity”.

In the case of “QVQLVESGGGLVQAGGSLRLSCAASGSTFSFYAMGWYRQAPGKERELVAAISRSGGSTFYADSVKGRFTISRDNAKNTFYLQMNSLKAEDTAVYYCAAEYAYVPGWYEYWGQGTQVTVSS”, the “polyreactivity (PSR sort gate)” value was “high polyreactivity”.

In the case of “QVQLVESGGGLVQAGGSLRLSCAASGSTFSFYAMGWYRQAPGKERELVADITSGGSTYYADSVKGRFTISRDNAKNTVYLQMNSLKPEDTAVYYCAKADYGGDYYYQSGGLYYYWGQGTQVTVSS”, the “polyreactivity (PSR sort gate)” value was “low polyreactivity”.

Turning to “QVQLVESGGGLVQAGGSLRLSCAASGSTFSFYDMGWSRQAPGKERELVAAITGSGGTTYYADSVQGRFTISRDNAKNTVYFQMNSLKPEDTAVYFCAADSLESYPDYEYDFWGQGTQVTVSS”, the “polyreactivity (PSR sort gate)” value is listed as “low polyreactivity”.

As to “QVQLVESGGGLVQAGGSLRLSCAASGSTFSFYDMGWYRQAPGKERELVAAITGSGGTTYYADSVKGRFTISRDNAKNTVYLQMNSLKPEDTAVYYCAADSLESYPDYEYDYWGQGTQVTVSS”, the “polyreactivity (PSR sort gate)” value is reported as “low polyreactivity”.

Take “QVQLVESGGGLVQAGGSLRLSCAASGSTFSGNAMGWYRQAPGKERELVARIRWSTGSTYYADSVKGRFTISRDNAKNTVYLQMNSLKPEDTAVYYCNARGTPWRYGGDYWGQGTQVTVSS”: the “polyreactivity (PSR sort gate)” value is listed as “low polyreactivity”.

“QVQLVESGGGLVQAGGSLRLSCAASGSTFSGNTMGWYRQAPGKERELVAAISRGGTRTNYADSVKGRFTISRDNAKNTVYLQMNSLKPEDTAVYYCAAGGSWGQNGYWGQGSQVTVSS”: the “polyreactivity (PSR sort gate)” value was “high polyreactivity”.

In the case of “QVQLVESGGGLVQAGGSLRLSCAASGSTFSGSVMGWDRPAPGKERELVAAISNRGGRTYYADSVKGRFTISRDNAKNTVYLQMNSLKPEDTAVYYCAARGVVDAGRTNRPYDYWGQGTQVTVSS”, the “polyreactivity (PSR sort gate)” value was “low polyreactivity”.

On to “QVQLVESGGGLVQAGGSLRLSCAASGSTFSGYAMGWYRQAPGKERELVAAISSSGGGTYYADSVKGRFTISRDNAKNTDYLQMNSLKPEDTAVYYCAARVGYRYRKGRYDYWGKGTQVTVSS”, for which the “polyreactivity (PSR sort gate)” value is given as “high polyreactivity”.

Regarding “QVQLVESGGGLVQAGGSLRLSCAASGSTFSGYAMGWYRQAPGKERELVAAITSSGGRTYYADSVKGRFTISRDNAKNTVYLQMNSLKPEDTAVYYCAALYYHEYDYWGQGTQVTVSS”, the “polyreactivity (PSR sort gate)” value is listed as “low polyreactivity”.

As to “QVQLVESGGGLVQAGGSLRLSCAASGSTFSGYVMGWYRQAPGKERELVAAINGGGGTTYYADSVKGRFTISRDNAKNTVYLQMNSLKPEDTAVYYCAKRSYVTYPPYDYWGQGTQVTVSS”, the “polyreactivity (PSR sort gate)” value is “high polyreactivity”.

Consider “QVQLVESGGGLVQAGGSLRLSCAASGSTFSHNAMGWYREATGKERELVAAITAGGITYYADSVKGRFTISRDNAKNTVYLQMNSLKPEETAVYYCAGDFWPSGRGVAFDYWGQGTQVTVSS”, for which the “polyreactivity (PSR sort gate)” value was “low polyreactivity”.

“QVQLVESGGGLVQAGGSLRLSCAASGSTFSHYAMGLYRQAPGKERALVAAISSGANTYYADSVKGRFTISRDNAKNTVYLLMNSLKPEDTAVYYCAADYYLAYIFPYDYWGQGSQVTVSS”: the “polyreactivity (PSR sort gate)” value was “low polyreactivity”.

“QVQLVESGGGLVQAGGSLRLSCAASGSTFSINAMGWYRQAPGIERELVAAISRSGGSTYYADSVKGRFTISRDNAKNTVYLQMNSLKPEDTAVYYCAADSRYDYEYWGQGTQVTVSS”: the “polyreactivity (PSR sort gate)” value is listed as “high polyreactivity”.

Take “QVQLVESGGGLVQAGGSLRLSCAASGSTFSIYAMGWYRQAPGKERELVAAITRRSGSTYYADSVKGRITISRDNAKNTVSLQMKSLKPEDTAVYYCAADTWRTDYTSSYYKNRDSWGQGTQVTVSS”: the “polyreactivity (PSR sort gate)” value is “high polyreactivity”.
